B1: TRIM35 (parent)
chain: PTCPVCKDRASPADLRTNHTLNNL

Variants of: B1
Assay: protein stability index of a GFP-peptide fusion (GPS, HEK-293T) (PSI 1-6); higher = more stable
Details: c terminus: a fixed tail appended
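Note: lentivirally expressed fusions sorted by FACS into six bins by GFP to DsRed ratio, PSI derived from sequencing read proportions per bin multiplied by bin number.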

Variant | protein stability index
PTCPVCKMRASPADLRTNHTLNNL [D8M] | 1.92
PTCPVCKFRASPADLRTNHTLNNL [D8F] | 1.71
PTCPVCKARASPADLRTNHTLNNL [D8A] | 1.94
PTCPVCKGRASPADLRTNHTLNNL [D8G] | 3.11
PTCPVCKCRASPADLRTNHTLNNL [D8C] | 2.09
PTCPVCKLRASPADLRTNHTLNNL [D8L] | 2.36
PTCPVCKYRASPADLRTNHTLNNL [D8Y] | 2.02
PTCPVCKWRASPADLRTNHTLNNL [D8W] | 2.32
PTCPVCKSRASPADLRTNHTLNNL [D8S] | 2.45
PTCPVHKDRASPADLRTNHTLNNL [C6H] | 4.11
PTCPVSKDRASPADLRTNHTLNNL [C6S] | 4.39
PTCPVEKDRASPADLRTNHTLNNL [C6E] | 4.64
PTCPVVKDRASPADLRTNHTLNNL [C6V] | 4.22
PTCPVKKDRASPADLRTNHTLNNL [C6K] | 4.31
PTCPVWKDRASPADLRTNHTLNNL [C6W] | 3.21
PTCPVQKDRASPADLRTNHTLNNL [C6Q] | 4.28
PTCPVIKDRASPADLRTNHTLNNL [C6I] | 3.59
PTCPVAKDRASPADLRTNHTLNNL [C6A] | 4.55
PTCPVFKDRASPADLRTNHTLNNL [C6F] | 3.84
PTCPVYKDRASPADLRTNHTLNNL [C6Y] | 4.1
PTCPVMKDRASPADLRTNHTLNNL [C6M] | 4.22
PTCPVGKDRASPADLRTNHTLNNL [C6G] | 4.12
PTCPVPKDRASPADLRTNHTLNNL [C6P] | 4.09
PTCPVDKDRASPADLRTNHTLNNL [C6D] | 4.74

Variant | protein stability index
PTCPVTKDRASPADLRTNHTLNNL [C6T] | 4.44
PTCPVLKDRASPADLRTNHTLNNL [C6L] | 3.86
PTCPVNKDRASPADLRTNHTLNNL [C6N] | 4.2
PTCPVRKDRASPADLRTNHTLNNL [C6R] | 4.05
PTRPVCKDRASPADLRTNHTLNNL [C3R] | 4.46
PTEPVCKDRASPADLRTNHTLNNL [C3E] | 4.06
PTDPVCKDRASPADLRTNHTLNNL [C3D] | 4.75
PTQPVCKDRASPADLRTNHTLNNL [C3Q] | 4.24
PTTPVCKDRASPADLRTNHTLNNL [C3T] | 4.36
PTLPVCKDRASPADLRTNHTLNNL [C3L] | 4.28
PTGPVCKDRASPADLRTNHTLNNL [C3G] | 4.3
PTNPVCKDRASPADLRTNHTLNNL [C3N] | 4.05
PTIPVCKDRASPADLRTNHTLNNL [C3I] | 4.38
PTAPVCKDRASPADLRTNHTLNNL [C3A] | 4.44
PTKPVCKDRASPADLRTNHTLNNL [C3K] | 4
PTVPVCKDRASPADLRTNHTLNNL [C3V] | 4.1
PTMPVCKDRASPADLRTNHTLNNL [C3M] | 4.08
PTWPVCKDRASPADLRTNHTLNNL [C3W] | 3.89
PTFPVCKDRASPADLRTNHTLNNL [C3F] | 3.79
PTHPVCKDRASPADLRTNHTLNNL [C3H] | 3.84
PTYPVCKDRASPADLRTNHTLNNL [C3Y] | 3.24
PTPPVCKDRASPADLRTNHTLNNL [C3P] | 4.02
PTSPVCKDRASPADLRTNHTLNNL [C3S] | 4.55
PTCPVCKDRHSPADLRTNHTLNNL [A10H] | 3.23

Variant | protein stability index
PTCPVCKDRISPADLRTNHTLNNL [A10I] | 3.05
PTCPVCKDRCSPADLRTNHTLNNL [A10C] | 2.03
PTCPVCKDRFSPADLRTNHTLNNL [A10F] | 2.96
PTCPVCKDRDSPADLRTNHTLNNL [A10D] | 3.34
PTCPVCKDRESPADLRTNHTLNNL [A10E] | 3.33
PTCPVCKDRKSPADLRTNHTLNNL [A10K] | 3.05
PTCPVCKDRGSPADLRTNHTLNNL [A10G] | 2.88
PTCPVCKDRLSPADLRTNHTLNNL [A10L] | 1.96
PTCPKCKDRASPADLRTNHTLNNL [V5K] | 3.59
PTCPGCKDRASPADLRTNHTLNNL [V5G] | 3.7
PTCPNCKDRASPADLRTNHTLNNL [V5N] | 3.3
PTCPWCKDRASPADLRTNHTLNNL [V5W] | 2.78
PTCPYCKDRASPADLRTNHTLNNL [V5Y] | 1.91
PTCPCCKDRASPADLRTNHTLNNL [V5C] | 3.15
PTCPLCKDRASPADLRTNHTLNNL [V5L] | 2.47
PTCPECKDRASPADLRTNHTLNNL [V5E] | 3.65
PTCPMCKDRASPADLRTNHTLNNL [V5M] | 2.76
PTCPHCKDRASPADLRTNHTLNNL [V5H] | 2.36
PTCPSCKDRASPADLRTNHTLNNL [V5S] | 3.43
PTCPPCKDRASPADLRTNHTLNNL [V5P] | 4.71
PTCPRCKDRASPADLRTNHTLNNL [V5R] | 2.87
PTCPFCKDRASPADLRTNHTLNNL [V5F] | 2.04
PTCPICKDRASPADLRTNHTLNNL [V5I] | 2.69
PTCPQCKDRASPADLRTNHTLNNL [V5Q] | 3.38

Variant | protein stability index
PTCPTCKDRASPADLRTNHTLNNL [V5T] | 3.19
PTCPDCKDRASPADLRTNHTLNNL [V5D] | 4.16
PTCPACKDRASPADLRTNHTLNNL [V5A] | 3.33
PTCNVCKDRASPADLRTNHTLNNL [P4N] | 3.26
PTCQVCKDRASPADLRTNHTLNNL [P4Q] | 3.28
PTCAVCKDRASPADLRTNHTLNNL [P4A] | 2.72
PTCHVCKDRASPADLRTNHTLNNL [P4H] | 3.03
PTCCVCKDRASPADLRTNHTLNNL [P4C] | 2.79
PTCSVCKDRASPADLRTNHTLNNL [P4S] | 2.98
PTCMVCKDRASPADLRTNHTLNNL [P4M] | 3.16
PTCLVCKDRASPADLRTNHTLNNL [P4L] | 3.32
PTCGVCKDRASPADLRTNHTLNNL [P4G] | 2.71
PTCDVCKDRASPADLRTNHTLNNL [P4D] | 3.71
PTCIVCKDRASPADLRTNHTLNNL [P4I] | 2.72
PTCVVCKDRASPADLRTNHTLNNL [P4V] | 3.19
PTCRVCKDRASPADLRTNHTLNNL [P4R] | 3.38
PTCWVCKDRASPADLRTNHTLNNL [P4W] | 2.58
PTCTVCKDRASPADLRTNHTLNNL [P4T] | 3.3
PTCEVCKDRASPADLRTNHTLNNL [P4E] | 3.42
PTCYVCKDRASPADLRTNHTLNNL [P4Y] | 3.01
PTCFVCKDRASPADLRTNHTLNNL [P4F] | 2.73
PTCKVCKDRASPADLRTNHTLNNL [P4K] | 3.21
